Consider two substances from paper PMC6599006, “Rational design using sequence information only produces a peptide that binds to the intrinsically disordered region of p53” (Scientific Reports, 2019).

Test in all cases: fluorescence anisotropy
Holding throughout (conditions): 2 mM Mg2+, 20 mM HEPES pH 7.9, 100 mM KCl, 2 mM MgCl2, 0.5 mM EDTA, 1 mM DTT, 0.2 mg/mL BSA, 5 nM 6-FAM-DNA, 25 C
A general note: In fluorescence polarisation assays a small probe gives low polarisation when free and higher when bound to something large.

Series [1] relates to CoreTet mutant (human).
The subject of series [2] is FL-p53 (thermostable, cysteine-modified mutant) (human).
In series [3] the test system is TetCT mutant (human).

As to spDNA (p21), the Kd (usually the concentration at which binding is half-saturated) in series [1] (600 uM DP6) was 13 nM; in series [1] (no DP6), 19 nM; in series [2] (75 uM DP6) it was 9.2 nM; in series [2] (150 uM DP6), 12 nM; in series [2] (300 uM DP5), 8.5 nM; in series [2] (300 uM DP6) it was 20 nM. Also, the equilibrium dissociation constant (Kd) in series [2] (450 uM DP6) stood at 22 nM; in series [2] (600 uM DP5), 5.3 nM; in series [2] (600 uM DP6) it was 21 nM; in series [2] (no DP5 (DP5 series)) it was 6.6 nM; in series [2] (no DP6) it was 7.2 nM.
With nspDNA (random sequence), the dissociation constant (Kd) was determined as 32 nM in series [2] (75 uM DP6); 57 nM in series [2] (150 uM DP6); 55 nM in series [2] (300 uM DP5); 90 nM in series [2] (300 uM DP6); 130 nM in series [2] (450 uM DP6); 61 nM in series [2] (600 uM DP5). Further, the dissociation constant (Kd) in series [2] (600 uM DP6) was 160 nM; in series [2] (no DP5 (DP5 series)), 49 nM; in series [2] (no DP6), 24 nM; in series [3] (75 uM DP6), 340 nM; in series [3] (no DP6) it was 110 nM.
